According to patent publication US20250304650A1:
Changes are numbered by the printed parent chain. In names and notes the source's numbering stands. Several values for one entry are separate records, joined by “and”; a condition that tells them apart may be missing. Equal values may be shown once. Values belong to the binder of their own block, whether it stands above or below them.

What was measured:
[1] = target: feline FcRn (IgG receptor FcRn large subunit p51 with feline beta-2-microglobulin) (feline); assay: SPR Biacore 8K, Fc captured by SASA tag on BSA, pH 6.0
[2] = target: feline FcRn (FCN-F82W3, Acrobiosystems) (feline); assay: SPR Carterra, IgG coupled, pH 6.0

B1: feline IgG1a Fc variant S252W (CH2-CH3) with SASA tag (Fc fusion, part only; not given: SASA tag, not shown: another chain or arm of the molecule; small tags and cut ends)
Fc: PPEMLGGPSIFIFPPKPKDTLWISRTPEVTCLVVDLGPDDSDVQITWFVDNTQVYTAKTSPREEQFNSTYRVVSVLPILHQDWLKGKEFKCKVNSKSLPSPIERTISKAKGQPHEPQVYVLPPAQEELSRNKVSVTCLIKSFHPPDIAVEWEITGQPEPENNYRTTPPQLDSDGTYFVYSKLSVDRSHWQRGNTYTCSVSHEALHSHHTQKSLTQSPGK
- Kd [1]: 23.5 nM and 23.3 nM
- koff [1]: 0.00538 s⁻¹ and 0.00545 s⁻¹
- kon [1]: 228000 M⁻¹ s⁻¹ and 234000 M⁻¹ s⁻¹

B3: anti-NGF feline IgG1a, Fc variant S290Y (antibody, part only; not given: anti-NGF variable domains, not shown: another chain or arm of the molecule; small tags and cut ends)
Fc: B1 Fc with W22S, S60Y
- Kd [2]: 128 nM
- koff [2]: 0.0849 s⁻¹
- kon [2]: 661000 M⁻¹ s⁻¹

B4: anti-NGF feline IgG1a, Fc variant E380T (antibody, part only; not given: anti-NGF variable domains, not shown: another chain or arm of the molecule; small tags and cut ends)
Fc: B1 Fc with W22S, E150T
- Kd [2]: 116 nM
- koff [2]: 0.062 s⁻¹
- kon [2]: 533000 M⁻¹ s⁻¹

B10: anti-NGF feline IgG1a, Fc variant S252R, L262Q (antibody, part only; not given: anti-NGF variable domains, light chain, not shown: another chain or arm of the molecule; small tags and cut ends)
Fc: B1 Fc with W22R, L32Q
- Kd [2]: 4.9 nM
- koff [2]: 0.00795 s⁻¹
- kon [2]: 1.63e+06 M⁻¹ s⁻¹

B11: anti-NGF feline IgG1a, Fc variant Q311L (antibody, part only; not given: anti-NGF variable domains, light chain, not shown: another chain or arm of the molecule; small tags and cut ends)
Fc: B1 Fc with W22S, Q81L
- Kd [2]: 88.2 nM
- koff [2]: 0.0499 s⁻¹
- kon [2]: 565000 M⁻¹ s⁻¹

B13: anti-NGF feline IgG1a, Fc variant S428H, T289H (antibody, part only; not given: anti-NGF variable domains, light chain, not shown: another chain or arm of the molecule; small tags and cut ends)
Fc: B1 Fc with W22S, T59H, S200H
- Kd [2]: 149 nM
- koff [2]: 0.0526 s⁻¹
- kon [2]: 352000 M⁻¹ s⁻¹

B16: anti-NGF feline IgG1a, Fc variant S428Y, S254R (antibody, part only; not given: Anti-NGF variable domains, not shown: another chain or arm of the molecule; small tags and cut ends)
Fc: B1 Fc with W22S, S24R, S200Y
- Kd [2]: 48.1 nM
- koff [2]: 0.0265 s⁻¹
- kon [2]: 552000 M⁻¹ s⁻¹

B17: anti-NGF feline IgG1a, Fc variant T260E, L309E, Q355L (antibody, part only; not given: anti-NGF variable domains, not shown: another chain or arm of the molecule; small tags and cut ends)
Fc: B1 Fc with W22S, T30E, L79E, Q125L
- Kd [2]: 9.9 nM
- koff [2]: 0.00977 s⁻¹
- kon [2]: 983000 M⁻¹ s⁻¹

B19: anti-NGF feline IgG1a, Fc variant R334D (antibody, part only; not given: anti-NGF variable domains, light chain, not shown: another chain or arm of the molecule; small tags and cut ends)
Fc: B1 Fc with W22S, R104D
- Kd [2]: 133 nM
- koff [2]: 0.0561 s⁻¹
- kon [2]: 423000 M⁻¹ s⁻¹

Results, then the binder that gave them:

- Kd [2]: 157 nM
- koff [2]: 0.0853 s⁻¹
- kon [2]: 544000 M⁻¹ s⁻¹
B2: anti-NGF feline IgG1a, Fc variant Q347L (antibody, part only; not given: Anti-NGF variable domains, not shown: another chain or arm of the molecule; small tags and cut ends)
Fc: B1 Fc with W22S, Q117L

- Kd [2]: 136 nM
- koff [2]: 0.0584 s⁻¹
- kon [2]: 428000 M⁻¹ s⁻¹
B5: anti-NGF feline IgG1a, Fc variant K326D (antibody, part only; not given: anti-NGF variable domains, not shown: another chain or arm of the molecule; small tags and cut ends)
Fc: B1 Fc with W22S, K96D

- Kd [2]: 233 nM
- koff [2]: 0.11 s⁻¹
- kon [2]: 472000 M⁻¹ s⁻¹
B6: anti-NGF feline IgG1a with wild-type Fc (antibody, part only; not given: anti-NGF variable domains, not shown: another chain or arm of the molecule; small tags and cut ends)
Fc: B1 Fc with W22S

- Kd [2]: 5.2 nM
- koff [2]: 0.00629 s⁻¹
- kon [2]: 1.22e+06 M⁻¹ s⁻¹
B7: anti-NGF feline IgG1a, Fc variant S434Y (antibody, part only; not given: Anti-NGF variable domains, not shown: another chain or arm of the molecule; small tags and cut ends)
Fc: B1 Fc with W22S, S206Y

- Kd [2]: 188 nM
- koff [2]: 0.0944 s⁻¹
- kon [2]: 502000 M⁻¹ s⁻¹
B8: anti-NGF feline IgG1a, Fc variant N389c-R (antibody, part only; not given: anti-NGF variable domains, not shown: another chain or arm of the molecule; small tags and cut ends)
Fc: B1 Fc with W22S, N161R

- Kd [2]: 10.7 nM
- koff [2]: 0.0123 s⁻¹
- kon [2]: 1.15e+06 M⁻¹ s⁻¹
B9: anti-NGF feline IgG1a, Fc variant R301L, E380V, T437L (antibody, part only; not given: anti-NGF variable domains, light chain, not shown: another chain or arm of the molecule; small tags and cut ends)
Fc: B1 Fc with W22S, R71L, E150V, T209L

- Kd [2]: 80.4 nM
- koff [2]: 0.0505 s⁻¹
- kon [2]: 629000 M⁻¹ s⁻¹
B12: anti-NGF feline IgG1a, Fc variant Q311V (antibody, part only; not given: anti-NGF variable domains, light chain, not shown: another chain or arm of the molecule; small tags and cut ends)
Fc: B1 Fc with W22S, Q81V

- Kd [2]: 95.7 nM
- koff [2]: 0.0437 s⁻¹
- kon [2]: 457000 M⁻¹ s⁻¹
B14: anti-NGF feline IgG1a, Fc variant R334D, T437L (antibody, part only; not given: anti-NGF variable domains, light chain, not shown: another chain or arm of the molecule; small tags and cut ends)
Fc: B1 Fc with W22S, R104D, T209L

- Kd [2]: 196 nM
- koff [2]: 0.118 s⁻¹
- kon [2]: 600000 M⁻¹ s⁻¹
B15: anti-NGF feline IgG1a, Fc variant L309Y (antibody, part only; not given: anti-NGF variable domains, light chain, not shown: another chain or arm of the molecule; small tags and cut ends)
Fc: B1 Fc with W22S, L79Y

- Kd [2]: 59.2 nM
- koff [2]: 0.0116 s⁻¹
- kon [2]: 196000 M⁻¹ s⁻¹
B18: anti-NGF feline IgG1a, Fc variant Q311R (antibody, part only; not given: Anti-NGF variable domains, not shown: another chain or arm of the molecule; small tags and cut ends)
Fc: B1 Fc with W22S, Q81R

- Kd [2]: 81.7 nM
- koff [2]: 0.0493 s⁻¹
- kon [2]: 603000 M⁻¹ s⁻¹
B20: anti-NGF feline IgG1a, Fc variant R334D, S428R (antibody, part only; not given: anti-NGF variable domains, light chain, not shown: another chain or arm of the molecule; small tags and cut ends)
Fc: B1 Fc with W22S, R104D, S200R

- Kd [2]: 102 nM
- koff [2]: 0.0415 s⁻¹
- kon [2]: 406000 M⁻¹ s⁻¹
B21: anti-NGF feline IgG1a, Fc variant L309E (antibody, part only; not given: anti-NGF variable domains, light chain, not shown: another chain or arm of the molecule; small tags and cut ends)
Fc: B1 Fc with W22S, L79E

- Kd [2]: 3.8 nM
- koff [2]: 0.012 s⁻¹
- kon [2]: 3.17e+06 M⁻¹ s⁻¹
B22: anti-NGF feline IgG1a, Fc variant S428L, E380T, S434R (antibody, part only; not given: anti-NGF variable domains, not shown: another chain or arm of the molecule; small tags and cut ends)
Fc: B1 Fc with W22S, E150T, S200L, S206R

- Kd [2]: 90.7 nM
- koff [2]: 0.0417 s⁻¹
- kon [2]: 460000 M⁻¹ s⁻¹
B23: anti-NGF feline IgG1a, Fc variant R334D, R301L (antibody, part only; not given: anti-NGF variable domains, light chain, not shown: another chain or arm of the molecule; small tags and cut ends)
Fc: B1 Fc with W22S, R71L, R104D
